Here are results for 1 molecule from patent publication US20100260754A1 (Eli Lilly, published 2010).

Usually Kd stands for the equilibrium constant for the complex coming apart.

Test [1] concerns the target T1, rat Dkk-1 (SEQ ID NO: 31) (rat, UniProt O54908 32-272 (mouse entry), limits assumed).
T1 chain: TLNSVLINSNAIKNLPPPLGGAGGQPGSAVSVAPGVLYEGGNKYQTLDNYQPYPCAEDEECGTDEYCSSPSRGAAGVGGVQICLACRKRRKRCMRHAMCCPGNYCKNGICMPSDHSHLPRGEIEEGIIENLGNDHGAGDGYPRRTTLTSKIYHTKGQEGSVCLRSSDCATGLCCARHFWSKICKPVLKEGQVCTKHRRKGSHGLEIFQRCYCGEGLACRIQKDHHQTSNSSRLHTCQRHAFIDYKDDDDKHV
As to the kind of experiment: cell-based or functional assay.

In test [2] the target is T2, cynomolgus DKK-1 (SEQ ID NO: 30) (cynomolgus, UniProt O94907 32-265 (human entry), limits assumed).
T2 chain: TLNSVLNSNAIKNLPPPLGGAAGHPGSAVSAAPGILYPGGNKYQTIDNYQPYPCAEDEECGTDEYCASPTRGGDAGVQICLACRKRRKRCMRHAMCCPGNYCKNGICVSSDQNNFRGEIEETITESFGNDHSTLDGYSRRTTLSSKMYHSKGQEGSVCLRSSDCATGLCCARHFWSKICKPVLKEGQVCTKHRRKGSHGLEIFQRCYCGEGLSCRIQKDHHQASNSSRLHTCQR
As to the kind of experiment: cell-based or functional assay.

Test [3] deals with T3, rabbit DKK-1 (SEQ ID NO: 32) (rabbit, UniProt O94907 32-265 (human entry), limits assumed).
T3 chain: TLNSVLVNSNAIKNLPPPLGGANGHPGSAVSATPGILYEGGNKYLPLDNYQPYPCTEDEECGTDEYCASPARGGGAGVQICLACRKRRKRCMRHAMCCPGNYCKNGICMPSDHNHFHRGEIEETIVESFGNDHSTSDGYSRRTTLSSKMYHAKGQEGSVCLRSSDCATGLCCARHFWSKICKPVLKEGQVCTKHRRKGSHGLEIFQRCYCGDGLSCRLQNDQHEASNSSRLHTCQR
As to the kind of experiment: cell-based or functional assay.

The target of test [4] is T4, human DKK-1 (SEQ ID NO: 29) (human, UniProt O94907 32-266).
T4 sequence: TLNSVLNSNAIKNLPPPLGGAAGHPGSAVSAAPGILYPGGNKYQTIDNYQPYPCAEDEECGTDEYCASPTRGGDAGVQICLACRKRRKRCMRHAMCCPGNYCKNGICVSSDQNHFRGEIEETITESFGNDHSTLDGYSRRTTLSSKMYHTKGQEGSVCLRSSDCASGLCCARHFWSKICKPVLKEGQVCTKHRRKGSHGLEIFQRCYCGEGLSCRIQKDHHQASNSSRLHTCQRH
As to the kind of experiment: cell-based or functional assay.

Test [5] concerns the target T1, rat Dkk-1 (SEQ ID NO: 31). As to the kind of experiment: KinExA solution equilibrium, 37 C, His-tagged DKK-1. How it is done:
(§1) To establish a binding equilibrium, a constant concentration of antibody is mixed with varying concentrations of His-tagged DKK-1 (SEQ ID NO:29, SEQ ID NO:30, SEQ ID NO:31, SEQ ID NO:32, or SEQ ID NO:33) (1 nM-1 pM range) in PBS (pH 7.4)+1 mg/mL bovine serum albumin (“BSA”) or buffer alone and incubated for several days at 37° C. Two sets of binding reactions are set up, one set at low concentration of antibody (3 pM) and one set at high concentration of antibody (30 or 50 pM).
(§2) After establishing equilibrium, a KinExA 3000 instrument (Sapidyne Inst. Inc.) is used to probe for the fraction of ‘free’ (unbound) antibody. Briefly, His-tagged DKK-1 is covalently coupled to NHS-activated Sepharose 4 Fast Flow beads (GE Healthcare) which are packed by the instrument to create a small column. The pre-equilibrated mixtures of antibody+His-tagged DKK-1 are passed over the beads to capture only free antibody. The amount of free antibody captured is proportional to the free concentration in the equilibrated samples, and is detected by injection of a fluorescently labeled secondary antibody. Data sets from low and high concentrations of antibody are fit globally using n-curve analysis in the KinExA software. This fitting returns a Kd value as well as the 95% confidence interval.
(In general: In KinExA the mixture passes briefly over coated beads that capture the unbound partner.)

Test [6] concerns the target T2, cynomolgus DKK-1 (SEQ ID NO: 30). The description is as above. How it is done: as §1, §2
Test [7] addresses T5, mouse DKK-1 (SEQ ID NO: 33) (mouse, UniProt O54908 32-272).
T5 construct: also called His-tagged DKK-1; Murine
T5 sequence: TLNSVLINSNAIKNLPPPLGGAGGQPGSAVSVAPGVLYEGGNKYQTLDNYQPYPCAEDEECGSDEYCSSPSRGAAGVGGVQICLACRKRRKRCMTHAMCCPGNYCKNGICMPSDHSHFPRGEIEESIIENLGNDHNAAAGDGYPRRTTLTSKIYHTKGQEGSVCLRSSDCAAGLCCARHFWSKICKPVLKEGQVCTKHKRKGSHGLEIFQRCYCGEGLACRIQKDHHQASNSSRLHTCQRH
The description is as above. How it is done:
as §1, §2

Test [8] has as its target T3, rabbit DKK-1 (SEQ ID NO: 32). The description is as above. How it is done: as §1, §2
The target in test [9] is T4, human DKK-1 (SEQ ID NO: 29). The description is as above. How it is done:
as §1, §2

B1: Antibody II (antibody, human IgG4 S228P, kappa, F234A L235A, V domains shown)
VH: EVQLVESGGGLVQPGGSLRLSCAASGFTFSSYTMSWVRQAPGKGLEWVATISGGGFGTYYPDSVKGRFTISRDNAKNSLYLQMNSLRAEDTAVYYCARPGYNNYYFDIWGQGTTVTVSS
VL: EIVLTQSPATLSLSPGERATLSCHASDSISNSLHWYQQKPGQAPRLLIYYARQSIQGIPARFSGSGSGTDFTLTISSLEPEDFAVYYCQQSESWPLHFGGGTKVEIKR
notes: also called human engineered DKK-1 antibody
With B1, the “EC50, block of DKK-1-mediated inhibition of alkaline phosphatase in C2C12 cells” value in test [1] stood at 2900 pM; in test [2], 6400 pM; in test [3], 6000 pM; in [4], 9800 pM. Also, the Kd in [5] came to 8.4 pM; in test [6], 14 pM; in test [7], 7 pM; in [8], 17 pM; in test [9], 3.3 pM.
